Laboratory results from patent publication US20220411525A1, “BCMA AS A TARGET FOR T CELL REDIRECTING ANTIBODIES IN B CELL LYMPHOMAS” (Janssen Pharmaceutica NV, priority 2021, published 2022).

Biological target: B cell maturation antigen (BCMA) (human) (UniProt Q02223)
Experiment: cell-based or functional assay

B cell maturation antigen (BCMA) (human), sequence (Q02223 whole entry): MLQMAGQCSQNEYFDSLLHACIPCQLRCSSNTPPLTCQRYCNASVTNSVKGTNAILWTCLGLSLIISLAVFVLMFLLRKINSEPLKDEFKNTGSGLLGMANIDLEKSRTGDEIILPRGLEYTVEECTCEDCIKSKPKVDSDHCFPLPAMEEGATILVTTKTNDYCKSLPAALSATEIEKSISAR

Substance: BCMAxCD3 DuoBody Teclistamab (JNJ-64007957) (bispecific antibody)
- average cell death of primary CLL cells, HD PBMCs 10:1 E:T, 96 h, 100 ng/mL, no γ-secretase inhibitor (first T cell donor): 15.8%
- average cell death of primary CLL cells, HD PBMCs 10:1 E:T, 96 h, 100 ng/mL, no γ-secretase inhibitor (second T cell donor): 20%
- average cell death of primary CLL cells, HD PBMCs 10:1 E:T, 96 h, 100 ng/mL, with 100 nM γ-secretase inhibitor (first T cell donor): 25.8%
- average cell death of primary CLL cells, HD PBMCs 10:1 E:T, 96 h, 100 ng/mL, with 100 nM γ-secretase inhibitor (second T cell donor): 27.4%
- average lysis of primary CLL cells, HD PBMCs 10:1 E:T, 48 h, 100 ng/mL, no γ-secretase inhibitor (first T cell donor): 12.9%
- average lysis of primary CLL cells, HD PBMCs 10:1 E:T, 48 h, 100 ng/mL, no γ-secretase inhibitor (second T cell donor): 16.4%
- average lysis of primary CLL cells, HD PBMCs 10:1 E:T, 48 h, 100 ng/mL, with 100 nM γ-secretase inhibitor (first T cell donor): 14.9%
- average lysis of primary CLL cells, HD PBMCs 10:1 E:T, 48 h, 100 ng/mL, with 100 nM γ-secretase inhibitor (second T cell donor): 21.6%
- lysis of primary CLL cells by HD CD8+ T cells, 5:1 E:T, 96 h, 100 ng/mL: < 60%
- mean lysis of primary CLL cells by autologous CLL derived T cells, 5:1 E:T, 96 h, 100 ng/mL: 40%
